This is an account of results in patent US20150218244A1 (Hoffmann-La Roche, published 2015).

Experiment [1] addresses T1, human IL-10R1 fused to an IgG Fc region, biotinylated (human, biotinylated (site not stated)).
T1 construct: also called hu IL-10R1; IL-10R1-Fc
Put plainly: SPR, against IL-10 wild type. The method, then: (§1) The SPR assay set-up is depicted in FIG. 15. About 770 RU of the biotinylated human IL-10R1 fused to an IgG Fc region (see SEQ ID NO: 87) were captured on the neutravidin-derivatized chip matrix of an NLC chip along vertical channels at a concentration of 30 μg/ml and a flow rate of 30 μl/min for a contact time or 240 s. Binding to huIL10R1 was measured at 5 different analyte concentrations (50, 10, 2, 0.4, 0.08 nM) by injections in horizontal orientation at 50 μl/min, recording the association rate for 180 s, the dissociation rate for 600 s. Running buffer (PBST) was injected along the sixth channel to provide an “in-line” blank for referencing. Association rates (kₒₙ) and dissociation rates (koff) were calculated using a simple 1:1 Langmuir binding model (ProteOn Manager software version 2.1) by simultaneously fitting the association and dissociation sensorgrams. The equilibrium dissociation constant (KD) was calculated as the ratio koff/kₒₙ. As human IL-10R1 could not be regenerated without a loss of activity, the subsequent steps of ligand capture and analyte injection were performed channel per channel using a freshly immobilized sensorchip surface for every interaction.
A decreased affinity to the IL-10R1 may represent a distinct advantage when targeting IL-10 to inflamed tissues through fusion with an antibody. […]
In general terms: In SPR one partner is held on a chip, and binding of the other changes the refractive index at the surface.

The target in experiment [2] is T1, human IL-10R1 fused to an IgG Fc …. Put plainly: SPR (ProteOn XPR36, 25 C), about 770 RU biotinylated IL-10R1-Fc on NLC chip, his-tagged cytokine as analyte. The method, then: as §1
A decreased affinity to the IL-10R1 may represent a distinct advantage when targeting IL-10 to inflamed tissues through fusion with an antibody.

In general, Kd refers to the constant that tells how readily two partners part at equilibrium. A higher Kd goes with a looser complex. The term koff denotes the first-order rate constant of dissociation. One may read the kon as the second-order rate constant of association. A lower kon goes with slow association.

T1 sequence (chain, as listed by the source limits assumed): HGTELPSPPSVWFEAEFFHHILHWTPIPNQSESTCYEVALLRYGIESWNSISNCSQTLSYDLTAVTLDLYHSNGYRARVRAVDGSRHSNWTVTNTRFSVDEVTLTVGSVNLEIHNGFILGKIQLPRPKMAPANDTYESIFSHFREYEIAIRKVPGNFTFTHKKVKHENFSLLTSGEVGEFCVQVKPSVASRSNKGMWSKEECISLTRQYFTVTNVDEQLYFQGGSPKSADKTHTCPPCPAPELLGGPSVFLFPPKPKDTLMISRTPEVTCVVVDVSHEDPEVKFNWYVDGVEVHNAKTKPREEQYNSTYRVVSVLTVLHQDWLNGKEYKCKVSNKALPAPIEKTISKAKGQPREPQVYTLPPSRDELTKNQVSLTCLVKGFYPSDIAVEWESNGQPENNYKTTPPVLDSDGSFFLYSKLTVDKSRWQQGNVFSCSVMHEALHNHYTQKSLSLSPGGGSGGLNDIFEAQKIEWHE

B1: IL-10 (I87A)-his mutant cytokine (ligand)
chain: SPGQGTQSENSCTHFPGNLPNMLRDLRDAFSRVKTFFQMKDQLDNLLLKESLLEDFKGYLGCQALSEMIQFYLEEVMPQAENQDPDAKAHVNSLGENLKTLRLRLRRCHRFLPCENKSKAVEQVKNAFNKLQEKGIYKAMSEFDIFINYIEAYMTMKIRNVDHHHHHH
notes: The entry already carries I87A; Purified as the dimeric cytokine; also called hu IL-10 (I87A)
Take B1: the “fold reduction of affinity compared to IL-10 wild type” value in experiment [1] is 10 fold. In experiment [2], the affinity, expressed as Kd, was 0.476 nM; the off-rate constant (koff) came out at 0.000219 s⁻¹; the kon is 461000 M⁻¹ s⁻¹.

B2: IL-10 (R24A)-his mutant cytokine (ligand)
chain: SPGQGTQSENSCTHFPGNLPNMLADLRDAFSRVKTFFQMKDQLDNLLLKESLLEDFKGYLGCQALSEMIQFYLEEVMPQAENQDPDIKAHVNSLGENLKTLRLRLRRCHRFLPCENKSKAVEQVKNAFNKLQEKGIYKAMSEFDIFINYIEAYMTMKIRNVDHHHHHH
notes: The entry already carries R24A; Purified as the dimeric cytokine; also called hu IL-10 (R24A)
In the case of B2, the “fold reduction of affinity compared to IL-10 wild type” value in experiment [1] amounted to 2 fold. In experiment [2], this molecule returned a Kd of 0.0807 nM, a koff of 0.000184 s⁻¹ and a kon of 2.28e+06 M⁻¹ s⁻¹.
